# From patent US20150104459A1
# B1: TCN-547 (5092_F11) (antibody, V domains shown)
# VH: QVQLQESGPGLVKPSQTLSLTCTVSGDSISSVDHYWSWIRQHPVKGLEWIGFMYYSASTYYNPSLKSRVTISTDTSKNQFSLRLSSVTAADTAVYYCARGTCAGDCSLHYYYYGLDVWGQGRTVTVSS
# VL: DIQMTQSPSSLSASVGDRVTITCRASQSISSYLNWYQHKPGKAPKVLMYAVSILQSGVPSRFSGSGSGADFTLTISSLQPEDFATYYCQQSYSSPLTFGGGTKVEIK
# B2: TCN-545 (5082_I15) (antibody, V domains shown)
# VH: QVQLQQWGAGLLKPSETLSLSCAVFGGSFSDYYWTWIRQPPGKGLEWIGEIKHSGRTNYNPSLESRVTISVDTSKNQFSLKLSSVTAADTAIYYCARGTDPDTEGYCRSGSCSAFDFWGQGTLVTVSS
# VL: EIVLTQSPGTLSLSPGERATLSCRASHFVNYRSLAWYQQTPGQVPRLLIYGASTRATGIPDRFSGSGSGTDFTLTISRLEPEDFAVYFCQQYGGSPRYTFGQGTRLEIK
# B3: TCN-542 (5079_A16) (antibody, V domains shown)
# VH: QVQLQESGPGLVKPSQTLSLTCTVSGGSISSGNYYWNWVRQHPGKGLEWIGYIYYRGSTFYNPSLKSRVTISIDTSKNQFSLRLSSVTAADTAVYYCAKDTRSSLDNYQYGMDVWGQGTTVTVSS
# VL: QTVVTQEPSLTVSPGGTVTLTCASSTGAVTSSYFPNWFQQKPGQAPRPLIYSTTIRHSWTPARFSGSLLGGKAALTLSGVQPEDEADYYCLLYSGGDPVAFGGGTKLTVL
# B4: TCN-554 (5277_M05) (antibody, V domains shown)
# VH: QVQLVQSGADLKKPGASVKVSCKASGYTFTDYYIHWVRQAPGQGLEWMGWINPESGDTKYAQKFQGRVTMTRDTSITTAYMELGRLRSDDTAVYYCARDVSTTWSWFAPWGQGTLVTVSS
# VL: DIVMTQSPDSLAVSLGERATINCRSSQSIFHNSNNENYLAWYQQKPGQPPKLLIYWASTRESGVPDRFSGSGSGTDFTLTISSLQAEDVAVYFCQQYYNAPLTFGGGTKVEIK
# B5: TCN-526 (5084_C17) (antibody, V domains shown)
# VH: EVLMVESGGGLVQPGGSVRLSCVASGFSFSSHWMTWVRQAPGKGLEWVANIEDDGGDKYYVDSVKGRFIISRDNAKNSVYLQMNSLRAEDTAVYFCARGSGSSDRSDYDPHYYYYLDVWGKGATVTVSS
# VL: DIQLTQSPSSLSASVGDRVTITCRASQSISRYLNWYQQKPGKAPKLLLFAASTLLDGVPSRFSGSGSGTDFTLTISSLQPEDFATYYCQRNHSPSWTFGQGTRVEIK
# B6: TCN-522 (3212_I12) (antibody, V domains shown)
# VH: QVQLQQWGAGLLKPSETLSLTCTVSGGSLTDYSWNWIRQPPGKGLEWIGDTLHNGYTNYNPSLRGRVSISIDTSKNQVSLRLTSVTAADTALYYCARGSGGYGGFDYFGKLRTWDFWGQGTLVTVSS
# VL: DIQLTQSPSSLSASVGDRVTITCRASQGIRNDLGWYQQKPGNAPKRLIFGASSLQSGVPSRFSGSGSGTEFTLTISSLQPEDFATYYCLQHNSYPYTFGQGTKLEIK
# How the values were obtained:
# Settings in all cases: remark: other sources report otherwise
# [1] = biological target: recombinant soluble homotrimeric HA of A/California/4/09 (H1N1) (Influenza A virus A/California/04/2009 (H1N1)); assay: HA microarray, BCC supernatant
# [2] = biological target: recombinant soluble homotrimeric HA of A/Japan/305/57 (H2N2) (Influenza A virus A/Japan/305/1957 (H2N2)); assay: HA microarray, BCC supernatant
# [3] = biological target: recombinant soluble homotrimeric HA of A/Netherlands/219/03 (H7N7) (Influenza A virus A/Netherlands/219/03 (H7N7)); assay: HA microarray, BCC supernatant
# [4] = biological target: recombinant soluble homotrimeric HA of A/Solomon Islands/3/06 (H1N1) (Influenza A virus A/Solomon Islands/3/2006 (H1N1)); assay: HA microarray, BCC supernatant
# [5] = biological target: recombinant soluble homotrimeric HA of A/Wisconsin/67/05 (H3N2) (Influenza A virus A/Wisconsin/67/2005 (H3N2)); assay: HA microarray, BCC supernatant
# [6] = biological target: recombinant soluble homotrimeric HA of A/chicken/Vietnam/NCVD-016/08 (H5N1) (Influenza A virus A/chicken/Vietnam/NCVD-016/2008 (H5N1)); assay: HA microarray, BCC supernatant
# [7] = biological target: recombinant soluble homotrimeric HA of A/duck/Yangzhou/02/2005 (H8N4) (Influenza A virus A/duck/Yangzhou/02/2005 (H8N4)); assay: HA microarray, BCC supernatant
# [8] = biological target: recombinant soluble homotrimeric HA, A/Netherlands/219/03 (H7N7) (influenza A virus A/Netherlands/219/03 (H7N7)); assay: microarray, trimeric HA, transfection supernatant
# [9] = biological target: recombinant soluble homotrimeric HA, A/chicken/Vietnam/NCVD-016/08 (H5N1) (influenza A virus A/chicken/Vietnam/NCVD-016/2008 (H5N1)); assay: microarray, trimeric HA, transfection supernatant
# [10] = biological target: recombinant soluble homotrimeric HA, A/duck/Yangzhou/02/2005 (H8N4) (influenza A virus A/duck/Yangzhou/02/2005 (H8N4)); assay: microarray, trimeric HA, transfection supernatant
# [11] = biological target: recombinant soluble homotrimeric HA, A/northern shoveler/California/HKWF115/2007 (H6N1) (influenza A virus A/northern shoveler/California/HKWF115/2007 (H6N1)); assay: microarray, trimeric HA, transfection supernatant
# [12] = biological target: recombinant homotrimeric HA, A/California/4/09 H1N1 (Influenza A virus A/California/4/09 (H1N1)); assay: trimeric HA microarray; transfection supernatant set 5
# [13] = biological target: recombinant soluble homotrimeric HA of A/Vietnam/1203/04 (H5N1) (Influenza A virus A/Vietnam/1203/2004 (H5N1)); assay: HA microarray, BCC supernatant
# [14] = biological target: recombinant soluble homotrimeric HA, A/Anhui/1/05 (H5N1) (influenza A virus A/Anhui/1/2005 (H5N1)); assay: microarray, trimeric HA, transfection supernatant
# [15] = biological target: recombinant soluble homotrimeric HA, A/Hong Kong/156/97 (H5N1) (influenza A virus A/Hong Kong/156/97 (H5N1)); assay: microarray, trimeric HA, transfection supernatant
# [16] = biological target: recombinant homotrimeric HA, A/Japan/305/57 H2N2 (Influenza A virus A/Japan/305/57 (H2N2)); assay: trimeric HA microarray; transfection supernatant set 5
# [17] = biological target: recombinant soluble homotrimeric HA of A/swine/Ontario/01911-2/99 (H4N6) (Influenza A virus A/Swine/Ontario/01911-2/99 (H4N6)); assay: HA microarray, BCC supernatant
# [18] = biological target: T1, recombinant homotrimeric HA, A/Solomon Islands/3/06 H1N1 (Influenza A virus A/Solomon Islands/3/06 (H1N1)); assay: trimeric HA microarray; transfection supernatant set 5
# [19] = biological target: T2, recombinant homotrimeric HA, A/swine/Ontario/01911-2/99 H4N6 (Influenza A virus A/swine/Ontario/01911-2/99 (H4N6)); assay: as above
# [20] = biological target: T1, recombinant homotrimeric HA, A/Solomon …; assay: trimeric HA microarray; transfection supernatant set 2
# [21] = biological target: recombinant soluble homotrimeric HA of A/Indonesia/5/05 (H5N1) (Influenza A virus A/Indonesia/5/2005 (H5N1)); assay: HA microarray, BCC supernatant
# [22] = biological target: T2, recombinant homotrimeric HA, …; assay: trimeric HA microarray; transfection supernatant set 2
Binder,Trimeric HA Binding RLU [1] [RLU],Trimeric HA Binding RLU [2] [RLU],Trimeric HA Binding RLU [3] [RLU],Trimeric HA Binding RLU [4] [RLU],Trimeric HA Binding RLU [5] [RLU],Trimeric HA Binding RLU [6] [RLU],Trimeric HA Binding RLU [7] [RLU],Trimeric HA Binding RLU [8] [RLU],Trimeric HA Binding RLU [9] [RLU],Trimeric HA Binding RLU [10] [RLU],Trimeric HA Binding RLU [11] [RLU],Trimeric HA Binding: RLU [12] [RLU],Trimeric HA Binding RLU [13] [RLU],Trimeric HA Binding RLU [14] [RLU],Trimeric HA Binding RLU [15] [RLU],other results
B1,170,40,401,155,16900,198,278,2090,1320,3340,2620,1470,,,,
B2,365,157,,,575,392,,,3230,13200,,818,235,4880,1560,
B3,,142,,,,,332,,5460,11600,2370,,,7410,786,Trimeric HA Binding: RLU [16]: 5180 RLU
B4,,328,610,,46500,250,,4520,2710,5810,,,,,,Trimeric HA Binding RLU [17]: 78 RLU; Trimeric HA Binding: RLU [18]: 992 RLU; Trimeric HA Binding: RLU [19]: 5400 RLU
B5,,246,,341,49300,179,,,,,,,,,,Trimeric HA Binding: RLU [20]: 1470 RLU
B6,5020,989,,38900,302,,,,,,,,145,,,Trimeric HA Binding RLU [21]: 67 RLU; Trimeric HA Binding: RLU [22]: 1050 RLU
